The values below come from US20240270866A1 (Alector, published 2024).

Assay [1] deals with T1, mouse SIRPA overexpressed on CHO cells (mouse, UniProt P97797 32-513).
T1 construct: also called CHO-muSIRPA
T1 sequence: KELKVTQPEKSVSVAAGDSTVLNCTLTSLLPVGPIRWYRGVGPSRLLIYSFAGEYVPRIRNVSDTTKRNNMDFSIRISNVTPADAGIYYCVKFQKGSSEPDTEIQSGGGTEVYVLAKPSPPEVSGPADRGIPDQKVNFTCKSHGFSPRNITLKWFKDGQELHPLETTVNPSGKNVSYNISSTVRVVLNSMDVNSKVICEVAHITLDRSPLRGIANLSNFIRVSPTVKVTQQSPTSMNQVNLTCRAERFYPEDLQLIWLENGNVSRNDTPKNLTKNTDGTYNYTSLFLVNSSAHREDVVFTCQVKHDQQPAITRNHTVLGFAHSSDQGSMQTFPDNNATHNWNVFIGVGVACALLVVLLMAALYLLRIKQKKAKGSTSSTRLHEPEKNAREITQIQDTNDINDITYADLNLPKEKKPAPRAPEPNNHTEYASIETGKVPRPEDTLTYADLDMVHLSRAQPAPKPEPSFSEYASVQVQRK
Briefly: flow, CHO-muSIRPA.

A further assay concerns the target T2, Human SIRPA D1 Fc (human, UniProt P78324 32-137).
T2 construct: not shown: human IgG1 Fc
Briefly: ForteBio IgG avid.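 Note: antibody IgG captured on AHQ biosensors, then 100 nM Fc-fused SIRP antigen applied for 3 min, followed by 3 min buffer dissociation, kinetics fitted to a 1:1 model.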 In general terms: Biolayer interferometry detects binding as a change in optical thickness at a sensor tip.

The next assay concerns the target T3, Mouse SIRPA D1 Fc (mouse, UniProt P97797 32-150, limits assumed).
T3 sequence: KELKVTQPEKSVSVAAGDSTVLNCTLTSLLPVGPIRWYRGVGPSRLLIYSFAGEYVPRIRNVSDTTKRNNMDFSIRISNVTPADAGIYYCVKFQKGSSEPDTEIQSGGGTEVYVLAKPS
Briefly: ForteBio IgG avid.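 Note: antibody IgG captured on AHQ biosensors, then 100 nM Fc-fused SIRP antigen applied for 3 min, followed by 3 min buffer dissociation, kinetics fitted to a 1:1 model.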

The next assay deals with Human SIRPb D1 Fc (human, UniProt O00241 30-148, limits assumed). Briefly: ForteBio IgG avid.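 Note: antibody IgG captured on AHQ biosensors, then 100 nM Fc-fused SIRP antigen applied for 3 min, followed by 3 min buffer dissociation, kinetics fitted to a 1:1 model.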
Assay [2] deals with T4, human SIRPA overexpressed on CHO cells (human, UniProt P78324 31-504).
T4 construct: also called CHO-huSIRPA
Briefly: flow, CHO-huSIRPA.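 Note: Anti-SIRPA antibodies applied at 1 µg/mL for 1 h on ice, binding read by flow cytometry using a PE-labelled secondary antibody.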

For assay [3], the target named is T1, mouse SIRPA overexpressed on CHO cells. Briefly: flow, CHO-muSIRPA. This is another data set of the same source.
Method: Initial characterization of anti-SIRPA antibodies of the present disclosure involved determining their ability to bind cell lines overexpressing human or mouse SIRPA. Cells were harvested, plated at 10⁶/ml in a 96 well plate, washed, and incubated in 100 ul PBS containing 1 ug/ml Mab for 1 hour in ice. Cells were then washed twice and incubated in 100 ul PBS containing 5 ug/ml PE-conjugated secondary antibody for 30 minutes in ice. Cells were washed twice in cold PBS and acquired on a BD FACS Canto. Data analysis and calculation of mean fluorescence intensity (MFI) values or % positive cells was performed with FlowJo® (TreeStar) software version 10.0.7.
Assay [4] has as its target T5, human SIRPA Fc fusion antigen (human, UniProt P78324 31-373).
T5 construct: heterologous signal peptide; not shown: human IgG1 Fc
Briefly: ForteBio Fab monovalent.

The target of assay [5] is T6, biotinylated human SIRPA (monomer) (human, UniProt P78324 31-373, limits assumed, biotinylated).
T6 construct: monomer made by IdeS cleavage of a SIRPA Fc fusion; also called recombinant human SIRPA
Briefly: MSD-SET, Fab, equilibrium.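 Note: solution equilibrium titration, free antigen captured on antibody-coated MSD plates and detected by electrochemiluminescence with labeled streptavidin, percent free antigen versus titrated antibody fit to quadratic model for KD.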
Method: Antibodies (20 nM in PBS) were coated onto standard bind MSD-ECL plates overnight at 4° C. or at room temperature for 30 min. Plates were then blocked with 1% BSA for 30 min with shaking at 700 rpm, followed by three washes with wash buffer (PBSF+0.05% Tween 20). SET samples were applied and incubated on the plates for 150s with shaking at 700 rpm followed by one wash. Antigen captured on a plate was detected with 250 ng/ml sulfotag-labeled streptavidin in PBSF by incubation on the plate for 3 min. The plates were washed three times with wash buffer and then read on the MSD Sector Imager 2400 instrument using 1× Read Buffer T with surfactant. The percent free antigen was plotted as a function of titrated antibody in Prism and fit to a quadratic equation to extract the KD. To improve throughput, liquid handling robots were used throughout MSD-SET experiments, including SET sample preparation.

Human SIRPb D1 Fc, sequence (O00241 30-148 limits assumed): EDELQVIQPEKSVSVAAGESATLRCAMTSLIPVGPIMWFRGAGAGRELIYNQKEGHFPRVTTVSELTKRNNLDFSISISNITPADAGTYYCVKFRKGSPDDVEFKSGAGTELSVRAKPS

B1: SA-2 (antibody, V domains shown)
VH: QVQLVESGGGVVQPGRSLRLSCAASGFTFSSYGMHWVRQAPGKGLEWVAVISYDGSNKYYADSVKGRFTISRDNSKNTLYLQMNSLRAEDTAVYYCAKDLGGGSGGYATSDYYYGMDVWGQGTTVTVSS
VL: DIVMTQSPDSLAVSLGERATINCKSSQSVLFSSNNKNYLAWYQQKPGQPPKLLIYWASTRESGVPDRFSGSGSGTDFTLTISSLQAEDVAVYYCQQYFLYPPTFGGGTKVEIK
notes: IgG
One may read the Kd as the constant that tells how readily two partners part at equilibrium. On to B1, for which the figures for the binding result (in assay [1]; with Mouse SIRPA D1 Fc; in the assay with Human SIRPb D1 Fc) were “no binding (tested: 1 ug/ml)”, “no binding (tested: 100 nM)” and “no binding (tested: 100 nM)”, respectively. Moreover, the affinity with Human SIRPA D1 Fc, expressed as Kd, was 2.44 nM. In addition, the “relative MFI” value was 98.3 fold over background in assay [2] and 0.527 fold over background in assay [3].

B2: SA-60 (antibody, V domains shown)
VH: EVQLVESGGGLVQPGGSLRLSCAASGFTFSSYSMNWVRQAPGKGLEWVSYISSSSSTIYYADSVKGRFTISRDNAKNSLYLQMNSLRAEDTAVYYCARTHKHFDYGMDVWGQGTTVTVSS
VL: EIVLTQSPATLSLSPGERATLSCRASQSVSSYLAWYQQKPGQAPRLLIYDSSNRATGIPARFSGSGSGTDFTLTISSLEPEDFAVYYCQDRSNLPWTFGGGTKVEIK
notes: IgG
For B2, the results for the binding result (in assay [1]; with Mouse SIRPA D1 Fc; with Human SIRPb D1 Fc) were “no binding (tested: 1 ug/ml)”, “no binding (tested: 100 nM)” and “no binding (tested: 100 nM)”, respectively. The molecule further yielded a Kd with Human SIRPA D1 Fc of 22.2 nM. Besides, the “relative MFI” value was found to be 4.85 fold over background in assay [2] and 0.539 fold over background in assay [3].

B3: SA-4 (antibody, V domains shown)
VH: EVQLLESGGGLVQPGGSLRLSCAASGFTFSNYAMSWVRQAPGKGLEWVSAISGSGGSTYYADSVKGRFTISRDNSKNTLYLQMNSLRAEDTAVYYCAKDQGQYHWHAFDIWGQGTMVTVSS
VL: EIVLTQSPATLSLSPGERATLSCRASQSVSSYLAWYQQKPGQAPRLLIYDASNRATGIPARFSGSGSGTDFTLTISSLEPEDFAVYYCQQDSNFPFTFGGGTKVEIK
notes: IgG
As for B3, the values for the binding result (in assay [1]; in the assay with Mouse SIRPA D1 Fc; with Human SIRPb D1 Fc) were “no binding (tested: 1 ug/ml)”, “no binding (tested: 100 nM)” and “no binding (tested: 100 nM)”, respectively. Binding with Human SIRPA D1 Fc was put at a Kd of 30.2 nM. Also, the “relative MFI” value in assay [2] is 0.87 fold over background; in assay [3], 0.491 fold over background.

B4: SA-62 (antibody, V domains shown)
VH: EVQLVESGGGLVQPGGSLRLSCAASGFTFSSYSMNWVRQAPGKGLEWVSYISSSSSTIYYADSVKGRFTISRDNAKNSLYLQMNSLRAEDTAVYYCARTHKHFDYGMDVWGQGTTVTVSS
VL: DIQMTQSPSSLSASVGDRVTITCQASQDIANYLNWYQQKPGKAPKLLIYDASNLETGVPSRFSGSGSGTDFTFTISSLQPEDIATYYCQQYVNYWTFGGGTKVEIK
notes: IgG
For the molecule B4, the binding result in assay [1] was “no binding (tested: 1 ug/ml)”; with Mouse SIRPA D1 Fc it was “no binding (tested: 100 nM)”; with Human SIRPb D1 Fc, “no binding (tested: 100 nM)”. The molecule also yielded an equilibrium dissociation constant (Kd) in the assay with Human SIRPA D1 Fc of 16.5 nM. Moreover, the “relative MFI” value in assay [2] came to 7.09 fold over background; in assay [3] it was 0.557 fold over background.

B5: SA-3 (antibody, V domains shown)
VH: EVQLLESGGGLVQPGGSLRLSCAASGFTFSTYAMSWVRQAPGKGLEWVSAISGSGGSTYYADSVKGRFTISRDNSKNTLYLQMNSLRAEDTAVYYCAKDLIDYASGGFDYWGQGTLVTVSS
VL: EIVLTQSPATLSLSPGERATLSCRASQSVSSYLAWYQQKPGQAPRLLIYDASNRATGIPARFSGSGSGTDFTLTISSLEPEDFAVYYCQQHDFWPPTFGGGTKVEIK
notes: IgG
Regarding B5, the binding result in assay [1] is reported as “no binding (tested: 1 ug/ml)”; with Mouse SIRPA D1 Fc, “no binding (tested: 100 nM)”; in the assay with Human SIRPb D1 Fc, “no binding (tested: 100 nM)”. Also, the Kd with Human SIRPA D1 Fc came out at 21.4 nM. In addition, the “relative MFI” value came out at 0.595 fold over background in assay [2] and 0.518 fold over background in assay [3].

B6: SA-1 (antibody, V domains shown)
VH: EVQLVESGGGLVQPGRSLRLSCAASGFTFGDYAMHWVRQAPGKGLEWVSGISWNSGSIGYADSVKGRFTISRDNAKNSLYLQMNSLRAEDTALYYCAKDAPYVGLDLWGRGTLVTVSS
VL: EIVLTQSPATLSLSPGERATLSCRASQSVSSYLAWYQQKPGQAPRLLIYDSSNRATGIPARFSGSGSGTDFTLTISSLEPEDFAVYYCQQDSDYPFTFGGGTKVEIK
notes: IgG
Regarding B6, the binding result in assay [1] was “no binding (tested: 1 ug/ml)”; with Mouse SIRPA D1 Fc, “no binding (tested: 100 nM)”; with Human SIRPb D1 Fc, “no binding (tested: 100 nM)”. In the assay with Human SIRPA D1 Fc, this molecule returned a Kd of 20 nM. The “relative MFI” value in assay [2] came out at 1.47 fold over background; in assay [3], 0.545 fold over background.

B7: SA-19-73 Fab (Fab, V domains shown)
VH: QVQLVESGGGLVQPGGSLRLSCAASGFTFSSYAMHWVRQAPGKGLEWVAGILYDGSNKYYADSVKGRFTISRDNSKNTLYLQMNSLRAEDTAVYYCANSDTKYTLGFAFDIWGQGTMVTVSS
VL: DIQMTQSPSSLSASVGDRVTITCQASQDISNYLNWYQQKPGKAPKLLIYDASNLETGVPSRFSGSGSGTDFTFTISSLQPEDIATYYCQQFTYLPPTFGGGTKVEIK
notes: papain Fab
Turning to B7, the Kd came out at 1.62 nM in assay [4] and 0.18 nM in assay [5].

B8: SA-19-75 Fab (Fab, V domains shown)
VH: QVQLVESGGGVVQPGRSLRLSCAASGFTFSSYGMHWVRQAPGKGLEWVAVIAYDGSNKLYADSVKGRFTISRDNSKNTLYLQMNSLRAEDTAVYYCALMRTKYTLGFAFDIWGQGTMVTVSS
VL: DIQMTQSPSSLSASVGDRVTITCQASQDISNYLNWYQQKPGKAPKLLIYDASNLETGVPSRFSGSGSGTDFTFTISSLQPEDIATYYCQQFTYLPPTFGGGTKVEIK
notes: papain Fab
As for B8, the Kd is 1.67 nM in assay [4] and 0.42 nM in assay [5].

B9: SA-19-72 Fab (Fab, V domains shown)
VH: QVQLVESGGGVVQPGRSLGLSCAASGFTFSSYAMHWVRQAPGKGLEWVAGILYDGSNKYYADSVKGRFTISRDNSKNTLYLQMNSLRAEDTAVYYCARSNEKYTLGFAFDIWGQGTMVTVSS
VL: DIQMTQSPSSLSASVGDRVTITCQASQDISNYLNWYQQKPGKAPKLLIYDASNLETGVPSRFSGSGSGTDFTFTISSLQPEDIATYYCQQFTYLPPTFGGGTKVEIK
notes: papain Fab
B9: the results for the Kd in assay [4] and in assay [5] were 4.95 nM and 0.88 nM, respectively.

B10: SA-19-78 Fab (Fab, V domains shown)
VH: QVQLVESGGGVVQPGRSLRLSCAASGFTFSSYGMHWVRQAPGKGLEWVAVIAYDGSNKLYADSVKGRFTISRDNSKNTLYLQMDSLRAEDTAVYYCATSDTKYTLGFAFDIWGQGTMVTVSS
VL: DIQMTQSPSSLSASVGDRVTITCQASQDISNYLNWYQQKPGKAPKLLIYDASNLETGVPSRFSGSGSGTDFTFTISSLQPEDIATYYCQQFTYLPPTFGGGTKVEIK
notes: papain Fab
B10: the Kd in assay [4] came to 1.53 nM; in assay [5], 0.084 nM.

B11: SA-19-76 Fab (Fab, V domains shown)
VH: QVQLVESGGGVVQPGRSLRLSCAASGFTFSSYGMHWVRQAPGKGLEWVAVIAYDGSNKLYADSVKGRFTISRDNAKNSLYLQMNSPRAEDTAVYYCATMRTKYTLGFAFDIWGQGTMVTVSS
VL: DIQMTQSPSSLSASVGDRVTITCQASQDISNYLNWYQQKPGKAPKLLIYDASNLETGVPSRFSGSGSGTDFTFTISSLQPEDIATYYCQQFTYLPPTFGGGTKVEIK
notes: papain Fab
As to B11, the Kd turned out to be 1.64 nM in assay [4] and 0.42 nM in assay [5].

B12: SA-19-79 Fab (Fab, V domains shown)
VH: QVQLVESGGGVVQPGRSLRLSCAASGFTFSSYGMHWVRQAPGKGLEWVAVIAYDGSNKIYADSVKGRFTISRDNSKNTLYLQMNSLRAEDTAVYYCATTDTKYTLGFAFDIWGQGTMVTVSS
VL: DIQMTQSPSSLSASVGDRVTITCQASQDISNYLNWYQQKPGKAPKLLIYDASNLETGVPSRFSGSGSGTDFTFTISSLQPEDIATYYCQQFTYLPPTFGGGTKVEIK
notes: papain Fab
B12: the values for the Kd in assay [4] and in assay [5] were 0.689 nM and 0.14 nM, respectively.

B13: SA-19-82 Fab (Fab, V domains shown)
VH: QVQLVESGGGVVQPGRSLRLSCAASGFTFSSYAMHWVRQAPGKGLEWVAGILYDGSNKYYADSVKGRFTISRDNSKNTLYLQMNSLRAEDTAVYYCARHVLKYTLGFAFDIWGQGTMVTVSS
VL: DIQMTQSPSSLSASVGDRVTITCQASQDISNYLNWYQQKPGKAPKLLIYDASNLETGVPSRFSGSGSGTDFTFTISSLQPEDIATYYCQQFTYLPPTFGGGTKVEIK
notes: papain Fab
As to B13, the Kd in assay [4] was determined as 1.44 nM; in assay [5], 0.27 nM.

B14: SA-19-81 Fab (Fab, V domains shown)
VH: QVQLVESGGGVVQPGRSLRLSCAASGFTSSSYGMHWVRQAPGKGLEWVAVIAYDGSNKLYADSVKGRFTISRDNSKNTLYLQMNSLRAEDTAVYYCARTPTKYTLGFAFDIWGQGTMVTVSS
VL: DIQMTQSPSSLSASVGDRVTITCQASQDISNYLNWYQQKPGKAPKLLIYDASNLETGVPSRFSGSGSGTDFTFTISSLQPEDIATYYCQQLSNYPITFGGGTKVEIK
notes: papain Fab
Take B14: the figures for the equilibrium dissociation constant (Kd) in assay [4] and in assay [5] were 1.53 nM and 0.37 nM, respectively.

B15: SA-19-80 Fab (Fab, V domains shown)
VH: EVQLLESGGGVVQPGRSLRLSCAASGFTFSSYGMHWVRQAPGKGLEWVAGILYDGSNKYYADSVKGRFTISRDNSKNTLYLQMDGLRAEDTAVYYCARHSVKYTLGFAFDIWGQGTMVTVSS
VL: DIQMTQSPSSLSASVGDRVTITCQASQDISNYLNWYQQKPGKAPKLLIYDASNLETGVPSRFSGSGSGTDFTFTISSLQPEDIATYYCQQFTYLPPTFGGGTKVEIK
notes: papain Fab
In the case of B15, the Kd in assay [4] turned out to be 2.26 nM; in assay [5] it was 0.22 nM.

B16: SA-19-77 Fab (Fab, V domains shown)
VH: QVQLVESGGGVVQPGRSLRLSCAASGFTFSSYGMAWVRQAPGKGLEWVAQILYDGSNEYYADSVKGRFTISRDNSKNTLYLQMNSLRAEDTAVYYCARDLTKYTLGFAFDIWGQGTMVTVSS
VL: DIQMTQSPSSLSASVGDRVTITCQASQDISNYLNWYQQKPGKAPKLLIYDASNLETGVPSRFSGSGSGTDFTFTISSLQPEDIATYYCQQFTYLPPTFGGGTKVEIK
notes: papain Fab
On to B16, for which the Kd in assay [4] was found to be 3.61 nM; in assay [5], 1.2 nM.

B17: SA-19-74 Fab (Fab, V domains shown)
VH: QVQLVESGGGVVQPGRSLRLSCAASGFAFSSYAMHWVRQAPGKGLEWVAGILYDGSNKYYADSVKGRFTISRDNSKNTLYLQMNSLRAEDTAVYYCARHSQKYTLGFAFDIWGQGTMVTVSS
VL: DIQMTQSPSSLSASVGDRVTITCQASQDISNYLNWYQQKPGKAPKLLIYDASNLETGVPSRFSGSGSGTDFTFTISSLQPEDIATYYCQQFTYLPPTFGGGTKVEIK
notes: papain Fab
Regarding B17, the dissociation constant (Kd) is 3.16 nM in assay [4] and 1.1 nM in assay [5].

B18: SA-59 (antibody, V domains shown)
VH: QVQLQESGPGLVKPSETLSLTCTVSGGSISSYYWSWIRQPPGKGLEWIGSIYYSGSTNYNPSLKSRVTISVDTSKNQFSLKLSSVTAADTAVYYCARSGGSYSYLDVWGQGTMVTVSS
VL: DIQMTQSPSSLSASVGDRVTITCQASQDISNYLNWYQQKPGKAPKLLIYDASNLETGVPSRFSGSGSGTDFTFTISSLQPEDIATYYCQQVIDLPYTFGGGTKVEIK
notes: IgG
Consider B18, for which the binding result in assay [1] is given as “no binding (tested: 1 ug/ml)”; with Mouse SIRPA D1 Fc it was “no binding (tested: 100 nM)”; in the assay with Human SIRPb D1 Fc, “no binding (tested: 100 nM)”. In addition, the Kd with Human SIRPA D1 Fc is 23.6 nM. Further, the “relative MFI” value in assay [2] is 0.63 fold over background; in assay [3], 0.53 fold over background.
